These results are taken from paper doi:10.1101/2022.01.19.476998 (bioRxiv, 2022).

For the assay, the target named is SARS-CoV-2 Spike S1 (Omicron) (SARS-CoV-2 Omicron B.1.1.529 (BA.1), strain). Put plainly: SPR. On the technique in general: Surface plasmon resonance follows binding to a sensor surface in real time, without labels.

B1: Cilgavimab (antibody, V domains shown)
VH: EVQLVESGGGLVKPGGSLRLSCAASGFTFRDVWMSWVRQAPGKGLEWVGRIKSKIDGGTTDYAAPVKGRFTISRDDSKNTLYLQMNSLKTEDTAVYYCTTAGSYYYDTVGPGLPEGKFDYWGQGTLVTVSS
VL: not shown
Take B1: the binding result was “binds”.
